What was measured:
[1] = biological target: T1, CMKLR1 peptide (loop EL3 of CMKLR1, SEQ ID No: 60) (Homo sapiens, UniProt Q99788); experiment: ELISA binding on CMKLR1 peptide; conditions: compared to isotype control; FIG. 12
T1 sequence (Q99788 275-307 limits assumed): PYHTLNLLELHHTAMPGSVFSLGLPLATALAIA
Experimental: FIG. 12. Binding analysis of the anti-CMKLR1 antibody on a CMKLR1 peptide by ELISA. The binding of the 2G1 antibody (□) on the CMKLR1 EL3 loop (SEQ ID No: 18) was compared to the isotype control antibody (3G8) (x) by measuring the OD at 450 nm by ELISA.
CMKLR1 peptide (273NH2-[…]-COOH305) (SEQ ID No: 60) (5 μg/ml) was coated in borate buffer overnight. Saturation was performed with PBS-Tween 0.1%-Gelatin 0.25% for 2 hours at 37° C. Then, 2G1 or hIgG1 antibodies were added at different concentrations for 2 hours at 37° C. […] The colorimetric reaction was read with TECAN.

[2] = tested on: Akt and Erk phosphorylation in pro-inflammatory (M1) macrophages; experiment: Western blot analysis ERK/Akt phosphorylation; assay type: cell-based, mice; conditions: 2 μg/mL; after 10 to 30 minutes of incubation; FIG. 17
Experimental: FIG. 17. Study of the CMKLR1 pathway activation: Akt and Erk phosphorylation. Western blot analysis of the ERK and AKT activation pathway after 5, 10 and 30 minutes of mice pro-inflammatory (M1) macrophages incubated with 2G1 or RvE1. The Phosphorylated protein Akt or Erk were assessed using P-Akt antibody or P-Erk antibody (p44/42). A. Erk and Akt activation with RvE1. B. Erk and Akt activation with 2G1.
Mice pro-inflammatory macrophages (M1) were generated from bone marrow with M-CSF and polarized with IFN-gamma (IFNg) and LPS. Briefly, bone marrow cells were collected by flushing the femoral bone and cultured with 100 ng/mL of mM-CSF for 5 days and then polarized with 20 ng/mL of IFNg and 100 ng/mL of LPS for 24 h. Then, they were deprived of FBS for 24 hours with RPMI FBS 2% medium. Finally, mice pro-inflammatory macrophages were treated with 2 μg/mL of 2G1 antibody at different times: 5, 10 and 30 minutes. Cells were collected in a RIPA buffer. The protein concentration was measured by a BCA protein kit assay. Proteins were denatured by heating at 95° C. for 5 minutes and diluted in DTT and Laemmli solution. After migration and transfer, the nitrocellulose membrane was blocked with 5% BSA in TBS-T for 2 hours. […] Western blot Images were quantified by Multi Gauge software

Hepa 1.6 cells = experiment: Hepatocarcinoma model (HCC), orthotopic murine hepatoma; assay type: in vivo, mice; conditions: anti-CMKLR1 0.8 mg/kg three times per week, anti-PD1 8 mg/kg, 2 weeks; followed sixty days; FIG. 20
Experimental: FIG. 20. Effect of an anti-CMKLR1 antibody on a Hepatocarcinoma mice model (HCC model). Anti-tumor effect of anti-CMKLR1 antibody (2G1, 0.8 mg/kg) i.p. administration three times a week for 2 weeks in combination (▴) or not (●) with two injections on day 4 and 8 of anti-PD1 mAb (RMP1-14 clone, 8 mg/kg) or with injections (twice a week) of anti-PD-1 antibody alone (Δ). Mice have been treated during 2 weeks in an orthotropic model of murine hepatoma (2.5.10^6 of Hepa 1.6 cells injected through the portal vein on day 0). Isotype control antibody was used at 0.8 mg/kg three times a week for 2 weeks. Mice response were considered partial (PR) when mice survive few days to 1 month after stop of treatment or complete (CR) when mice survive over 1 month or cured when they survive three times longer than the time necessary to all control mice dye.
Method: Mice were anesthetized with a cocktail of xylazine/ketamine. After a laparotomy, tumoral Hepa 1.6 cells were injected in PBS through the portal vein (2.5·10^6 cells/100 μL) in PBS. The treatment was started 4 days after tumor injection. The anti-CMKLR1 antibody (2G1clone) and the hIgG1 istotype control were injected at 0.8 mg/kg three times per week during 2 weeks. The anti-PD1 monoclonal antibody was injected twice a week during 2 weeks intraperitoneally in PBS (8 mg/kg). […]

[3] = tested on: neutrophils and macrophages in exudates; experiment: in vivo neutrophils apoptosis (sterile air and carrageenan, exudates)
Experimental: FIG. 27—in vivo neutrophils apoptosis —A) Experimental proceedings—B) ChemR23 expression C) neutrophils frequency in exudates D) macrophages frequency in exudates G) neutrophils mortality F) Ratio dead/living neutrophils.
Sterile air was injected two times at d3 and d6 and inflammation was initiated with the injection of carrageenan. Exudates were collected at different times and stained for flow cytometry analysis.

[4] = tested on: PMN from healthy volunteers or ANCA patients; experiment: Neutrophils transmigration through endothelial monolayer (HDMEC transwell); assay type: cell-based, human
Experimental: Endothelial cells were coated and +/−activated with 100 U/mL of TNFa overnight. Then PMN were added with or without TNFa at 100 U/mL and Ab for two hours. The transmigrated PMN were collected and analyzed by flow cytometry.
Human endothelial cells (HDMEC) were incubated for 24 h in the transwell coated with gelatin and activated overnight with TNF-alpha at 100 U/mL or without inflammatory conditions. Then, PMN from healthy volunteers or ANCA patients were incubated in transwell containing the monolayer of HDMEC for 4 hours. Antibodies (Iso Ctrl and 2G1) were added at 10 μg/mL+/−TNF-alpha at 100 U/mL during the 4 hours of the transmigration assay. The lower transmigrated part of the transwell was collected and the transmigrated PMN were counted by flow cytometry using counting beads.

AK-7 cells = experiment: Mesothelioma model survival; assay type: in vivo, mice; conditions: 1 mg/kg three times a week for 3 weeks starting at d4; vs control antibody; FIG. 30
Experimental: AK-7 cells (3M) were injected in the pleural cavity and mice received either Iso ctrl or 2G1 three times a week for 3 weeks starting at d4 at 1 mg/kg.

B1: 2G1: parental chimeric anti-CMKLR1 antibody: heavy chain variable domain SEQ ID No. 37, light chain variable domain SEQ ID No. 49 (antibody, V domains shown)
VH: EVQLVASGGGLVQPGGSLKLSCAASGFTFSSYGMSWVRQTPDRRLELVATINRYGGSTYYPDSVKGRFTISRDNAKNTLYLQMSSLKSEDTAMYYCPRLIYYGNEGDSWGQGTTLTVSS
VL: QIVLTQSPAIMSASPGEKVTMTCSASSSVSFMHWYQQKSGTSPKRWIYDTTKLTSGVPARFSGSGSGTFYSLTISSMEAEDAATYYCQQWNSKPPLTFGPGTKLELKR
[1]
  binding on the CMKLR1 EL3 loop peptide (OD at 450 nm): able to bind the polypeptide forming the loop EL3 of CMKLR1
[2]
  activation of Akt and Erk proteins (phosphorylation): able to induce the activation of both Akt and Erk proteins
Hepa 1.6 cells
  survival rate (treated animals with prolonged survival): 15%
[3]; FIG. 27C
  percentage of neutrophils in exudates: not significantly decreased
[3]; FIG. 27D
  overall percentage of macrophages in exudates: slightly enhanced
[3]; FIG. 27E and FIG. 27F
  percentage of dead neutrophils: increased
[4]; 10 μg/mL, compared to control compounds, FIG. 28A
  transmigration capability of neutrophils: lower transmigration capability
[4]; PMN and endothelial cells activated with TNFa, healthy volunteers and patients, FIG. 28B
  PMN transmigration through endothelial monolayer under inflammatory condition: avoids PMN transmigration
AK-7 cells
  survival rate: higher survival rate

Source: patent US12534533B2, “Anti-chemokine like receptor 1 humanized antibodies and their therapeutic applications” (OSE IMMUNOTHERAPEUTICS, priority 2019, dated 2026)
